Data from doi:10.1101/2022.09.15.508097 (bioRxiv, 2022).

T1: HAT-MBP-ZNF518B^770–987 (human, UniProt Q9C0D4 770-987)
T1 sequence: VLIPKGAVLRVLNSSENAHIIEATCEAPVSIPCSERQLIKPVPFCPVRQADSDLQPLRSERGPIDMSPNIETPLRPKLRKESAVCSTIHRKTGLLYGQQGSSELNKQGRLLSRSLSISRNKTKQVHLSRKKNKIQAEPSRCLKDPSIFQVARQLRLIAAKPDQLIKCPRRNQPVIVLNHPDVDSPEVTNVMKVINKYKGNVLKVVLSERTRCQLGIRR

T2: TetR-EYFP-ZNF518B^WT (human, UniProt Q9C0D4 1-1074)
T2 sequence: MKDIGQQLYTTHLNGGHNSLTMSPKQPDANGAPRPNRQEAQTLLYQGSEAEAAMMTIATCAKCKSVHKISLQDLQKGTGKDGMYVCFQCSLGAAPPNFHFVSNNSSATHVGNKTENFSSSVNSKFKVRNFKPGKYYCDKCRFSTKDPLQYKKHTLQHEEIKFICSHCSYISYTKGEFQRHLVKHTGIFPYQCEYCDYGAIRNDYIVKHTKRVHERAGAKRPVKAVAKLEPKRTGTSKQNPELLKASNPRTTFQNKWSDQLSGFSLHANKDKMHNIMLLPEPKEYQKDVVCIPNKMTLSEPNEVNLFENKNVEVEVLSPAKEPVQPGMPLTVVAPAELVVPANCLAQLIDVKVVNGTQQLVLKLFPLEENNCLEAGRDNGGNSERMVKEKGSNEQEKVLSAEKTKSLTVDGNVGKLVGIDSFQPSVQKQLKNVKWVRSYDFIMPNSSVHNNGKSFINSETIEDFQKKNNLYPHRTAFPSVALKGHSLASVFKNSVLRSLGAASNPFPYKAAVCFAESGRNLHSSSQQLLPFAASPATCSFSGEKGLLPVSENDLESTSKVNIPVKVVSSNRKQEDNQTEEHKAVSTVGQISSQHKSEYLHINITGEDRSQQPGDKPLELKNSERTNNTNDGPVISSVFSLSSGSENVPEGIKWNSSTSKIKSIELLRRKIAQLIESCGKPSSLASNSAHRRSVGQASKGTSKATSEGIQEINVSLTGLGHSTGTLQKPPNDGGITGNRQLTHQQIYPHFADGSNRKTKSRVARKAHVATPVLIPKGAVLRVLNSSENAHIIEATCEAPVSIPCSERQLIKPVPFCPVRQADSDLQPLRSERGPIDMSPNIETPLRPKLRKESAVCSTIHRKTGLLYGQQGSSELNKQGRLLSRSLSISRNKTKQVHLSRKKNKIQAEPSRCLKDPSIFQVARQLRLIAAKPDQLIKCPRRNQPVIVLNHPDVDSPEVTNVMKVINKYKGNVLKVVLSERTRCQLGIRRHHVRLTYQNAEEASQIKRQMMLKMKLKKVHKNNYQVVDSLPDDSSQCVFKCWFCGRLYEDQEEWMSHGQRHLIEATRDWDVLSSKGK

T3: TetR-EYFP-ZNF518B^770–987 (human, UniProt Q9C0D4 770-987)
T3 sequence: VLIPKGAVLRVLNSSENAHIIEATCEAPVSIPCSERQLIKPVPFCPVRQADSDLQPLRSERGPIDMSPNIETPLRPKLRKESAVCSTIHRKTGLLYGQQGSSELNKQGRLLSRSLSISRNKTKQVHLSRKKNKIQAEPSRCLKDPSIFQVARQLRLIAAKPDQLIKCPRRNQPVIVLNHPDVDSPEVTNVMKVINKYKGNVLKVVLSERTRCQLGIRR

T4: TetR-EYFP-ZNF518B^344–1074 (human, UniProt Q9C0D4 344-1074)
T4 sequence: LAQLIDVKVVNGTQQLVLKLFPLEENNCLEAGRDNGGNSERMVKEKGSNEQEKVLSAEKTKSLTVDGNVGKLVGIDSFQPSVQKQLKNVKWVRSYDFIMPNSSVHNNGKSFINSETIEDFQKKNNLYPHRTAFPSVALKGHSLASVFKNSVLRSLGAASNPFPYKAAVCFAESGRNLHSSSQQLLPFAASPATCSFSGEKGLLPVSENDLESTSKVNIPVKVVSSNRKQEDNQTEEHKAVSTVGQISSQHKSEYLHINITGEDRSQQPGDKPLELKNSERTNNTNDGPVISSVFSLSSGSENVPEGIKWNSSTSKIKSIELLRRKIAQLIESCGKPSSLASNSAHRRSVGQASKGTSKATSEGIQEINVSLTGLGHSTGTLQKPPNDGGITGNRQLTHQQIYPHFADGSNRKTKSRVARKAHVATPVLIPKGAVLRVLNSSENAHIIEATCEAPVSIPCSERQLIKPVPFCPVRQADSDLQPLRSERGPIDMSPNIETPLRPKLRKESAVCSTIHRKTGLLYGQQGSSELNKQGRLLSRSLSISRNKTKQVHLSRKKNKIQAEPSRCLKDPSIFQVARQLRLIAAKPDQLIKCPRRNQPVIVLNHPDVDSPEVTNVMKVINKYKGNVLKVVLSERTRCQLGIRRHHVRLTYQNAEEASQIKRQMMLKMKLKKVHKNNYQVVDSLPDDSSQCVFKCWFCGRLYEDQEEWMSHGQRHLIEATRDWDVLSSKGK

T5: TetR-EYFP-ZNF518B^555–1074 (human, UniProt Q9C0D4 555-1074)
T5 sequence: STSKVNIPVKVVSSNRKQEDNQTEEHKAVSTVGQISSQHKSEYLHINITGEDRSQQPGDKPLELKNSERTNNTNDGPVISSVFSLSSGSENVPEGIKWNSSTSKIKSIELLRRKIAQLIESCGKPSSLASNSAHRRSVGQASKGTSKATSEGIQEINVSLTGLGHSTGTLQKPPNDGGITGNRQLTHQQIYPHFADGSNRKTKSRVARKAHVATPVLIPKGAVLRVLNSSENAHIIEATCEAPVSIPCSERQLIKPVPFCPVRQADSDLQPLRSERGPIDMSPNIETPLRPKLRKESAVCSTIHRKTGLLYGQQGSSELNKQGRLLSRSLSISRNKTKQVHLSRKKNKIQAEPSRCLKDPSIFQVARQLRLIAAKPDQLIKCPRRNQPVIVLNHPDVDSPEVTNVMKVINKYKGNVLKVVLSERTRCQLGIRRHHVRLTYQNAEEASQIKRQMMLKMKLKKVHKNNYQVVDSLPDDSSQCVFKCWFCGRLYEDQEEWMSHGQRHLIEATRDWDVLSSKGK

T6: TetR-EYFP-ZNF518B^878–1074 (human, UniProt Q9C0D4 878-1074)
T6 sequence: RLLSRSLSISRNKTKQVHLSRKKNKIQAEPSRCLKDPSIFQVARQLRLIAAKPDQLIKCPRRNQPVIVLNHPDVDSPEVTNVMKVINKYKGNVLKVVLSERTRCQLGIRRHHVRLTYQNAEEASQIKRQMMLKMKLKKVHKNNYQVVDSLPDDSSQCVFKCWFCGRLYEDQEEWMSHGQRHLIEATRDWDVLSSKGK

T7: TetR-EYFP-ZNF518B^344–987 (human, UniProt Q9C0D4 344-987)
T7 sequence: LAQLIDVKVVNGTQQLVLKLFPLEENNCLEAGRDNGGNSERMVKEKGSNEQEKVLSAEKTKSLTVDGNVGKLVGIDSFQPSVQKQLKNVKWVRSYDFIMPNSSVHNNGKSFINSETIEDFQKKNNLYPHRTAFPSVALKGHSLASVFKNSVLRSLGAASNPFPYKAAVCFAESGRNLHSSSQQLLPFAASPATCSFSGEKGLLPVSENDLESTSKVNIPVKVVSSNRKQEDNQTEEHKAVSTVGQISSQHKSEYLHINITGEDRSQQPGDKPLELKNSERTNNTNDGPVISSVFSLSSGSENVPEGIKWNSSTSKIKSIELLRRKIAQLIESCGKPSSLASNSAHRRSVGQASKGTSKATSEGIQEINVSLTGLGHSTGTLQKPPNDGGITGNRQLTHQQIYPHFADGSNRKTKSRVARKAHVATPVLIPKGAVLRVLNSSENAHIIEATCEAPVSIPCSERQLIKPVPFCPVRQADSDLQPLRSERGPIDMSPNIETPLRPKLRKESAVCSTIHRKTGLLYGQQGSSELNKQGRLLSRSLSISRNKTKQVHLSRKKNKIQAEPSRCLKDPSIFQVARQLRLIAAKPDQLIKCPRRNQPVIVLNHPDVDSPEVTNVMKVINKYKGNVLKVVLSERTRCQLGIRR

T8: TetR-EYFP-ZNF518B^878–987 (human, UniProt Q9C0D4 878-987)
T8 sequence: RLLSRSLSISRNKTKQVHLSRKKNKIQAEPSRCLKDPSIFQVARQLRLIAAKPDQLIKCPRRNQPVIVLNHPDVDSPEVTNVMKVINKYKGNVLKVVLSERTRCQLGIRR


Experiments:
HAT-MBP-ZNF518B^770–987 = biological target: T1, HAT-MBP-ZNF518B^770–987; assay: pull-down
TetR-EYFP-ZNF518B^WT = biological target: T2, TetR-EYFP-ZNF518B^WT; assay: fluorescence microscopy-based interaction-trap
[1] = biological target: T3, TetR-EYFP-ZNF518B^770–987; assay: fluorescence microscopy-based interaction-trap
[2] = biological target: T4, TetR-EYFP-ZNF518B^344–1074; assay: fluorescence microscopy-based interaction-trap
[3] = biological target: T5, TetR-EYFP-ZNF518B^555–1074; assay: fluorescence microscopy-based interaction-trap
[4] = biological target: T6, TetR-EYFP-ZNF518B^878–1074; assay: fluorescence microscopy-based interaction-trap
[5] = biological target: T7, TetR-EYFP-ZNF518B^344–987; assay: fluorescence microscopy-based interaction-trap
[6] = biological target: T8, TetR-EYFP-ZNF518B^878–987; assay: fluorescence microscopy-based interaction-trap

| Binder | binding result (HAT-MBP-ZNF518B^770–987) | % of cells with recruitment to alphoid^tetO (TetR-EYFP-ZNF518B^WT) [%] | % of cells with recruitment to alphoid^tetO [1] [%] | % of cells with recruitment to alphoid^tetO [2] [%] | % of cells with recruitment to alphoid^tetO [3] [%] | % of cells with recruitment to alphoid^tetO [4] [%] | % of cells with recruitment to alphoid^tetO [5] [%] | % of cells with recruitment to alphoid^tetO [6] [%] |
| --- | --- | --- | --- | --- | --- | --- | --- | --- |
| His6-GST-HP1γ (natural protein) not shown | binds | – | – | – | – | – | – | – |
| Halo-HP1β (natural protein, Halo Tag TMR ligand on the Halo tag) not shown | – | 58 | > 75 | > 75 | > 75 | > 75 | > 75 | > 75 |
| Halo-HP1γ (natural protein, Halo Tag TMR ligand on the Halo tag) not shown | – | – | > 75 | > 75 | > 75 | > 75 | > 75 | > 75 |
| His6-GST-HP1β (natural protein) not shown | binds | – | – | – | – | – | – | – |
